Article PMC12072577, “Structure and Inhibition of the Human Na^+/H^+ Exchanger SLC9B2” (International Journal of Molecular Sciences, 2025)
Blank lines part the entries; values can stand above or below the binder they belong to.

What was measured:
[1] = target: T1, bison NHA2ΔN reconstituted into biotinylated proteoliposomes (bison, UniProt A0A6P3HVI0); assay: ELISA; liposome ELISA: biotinylated proteoliposomes with bison NHA2ΔN immobilised on streptavidin-coated microplates; hybridoma clones
T1 construct: Sodium/proton exchanger NHA2 (SLC9B2) of bison, N-terminally truncated (ΔN); The biotin is on a lipid of the liposome, not on the protein; also called bison NHA2∆N; source: reconstituted with egg PC and a biotinylated lipid

[2] = target: the molecule itself; assay: cryo-EM structure; human NHA2∆N-Fab complex in MSP1E2 nanodiscs with yeast PI lipids; apo and with 1 mM phloretin

T1 sequence (A0A6P3HVI0 whole entry, stated change not applied, the tested form may be a part): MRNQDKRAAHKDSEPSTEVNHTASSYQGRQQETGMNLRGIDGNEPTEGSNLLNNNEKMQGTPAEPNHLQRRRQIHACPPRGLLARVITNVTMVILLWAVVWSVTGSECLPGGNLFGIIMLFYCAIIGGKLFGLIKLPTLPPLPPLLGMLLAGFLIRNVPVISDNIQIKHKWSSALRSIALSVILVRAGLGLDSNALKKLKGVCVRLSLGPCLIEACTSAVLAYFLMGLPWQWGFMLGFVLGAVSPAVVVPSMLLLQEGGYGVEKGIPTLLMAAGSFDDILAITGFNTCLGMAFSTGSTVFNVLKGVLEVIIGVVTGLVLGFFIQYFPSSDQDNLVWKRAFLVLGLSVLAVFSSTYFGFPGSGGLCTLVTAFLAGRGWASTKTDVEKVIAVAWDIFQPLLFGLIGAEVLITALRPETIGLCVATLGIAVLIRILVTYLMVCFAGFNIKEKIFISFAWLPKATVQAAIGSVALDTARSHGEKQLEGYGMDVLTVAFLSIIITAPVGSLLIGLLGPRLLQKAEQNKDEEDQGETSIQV

- binding result [1]: binds
B1: mouse monoclonal antibody against bison NHA2∆N (parent of the Fab) (antibody, V domains shown)
VH: EVQLQESGPELVKPGASVKMSCKASGYTFTNYFIHWVKQKPGQGLEWIGYINPYNDITKFNEKFKGKATLTSDKSSRTAYMELSSLTSEDSAVYYCARCDGYYRYYAMDYWGQGTSVTVSS
VL: DIVMTQTTSSLSASLGDRVTISCRASQDISNYLNWFQQKPDGTVKLLICYTSRLHSGVPSRFSGSGSGTDYSLTISNLEQEDIATYFCQQDSKHPWTFGGGTKLEIK
notes: Fab part as the heavy chain of m2 (in PDB 9QUB and 9QUW); as the light chain of m2 (in PDB 9QUB and 9QUW); Whole antibody of the selected hybridoma clone; also called antibody clone; source: mouse hybridoma (MRL/lpr mice immunised with bison NHA2 proteoliposomes)

B2: Homo sapiens NHA2∆N (residues 59–537), tags removed with TEV protease, in MSP1E2 nanodiscs (domain or fragment, human, UniProt Q86UD5 59-537, looked up)
chain: LQETPTEANHVQRLRQMLACPPHGLLDRVITNVTIIVLLWAVVWSITGSECLPGGNLFGIIILFYCAIIGGKLLGLIKLPTLPPLPSLLGMLLAGFLIRNIPVINDNVQIKHKWSSSLRSIALSIILVRAGLGLDSKALKKLKGVCVRLSMGPCIVEACTSALLAHYLLGLPWQWGFILGFVLGAVSPAVVVPSMLLLQGGGYGVEKGVPTLLMAAGSFDDILAITGFNTCLGIAFSTGSTVFNVLRGVLEVVIGVATGSVLGFFIQYFPSRDQDKLVCKRTFLVLGLSVLAVFSSVHFGFPGSGGLCTLVMAFLAGMGWTSEKAEVEKIIAVAWDIFQPLLFGLIGAEVSIASLRPETVGLCVATVGIAVLIRILTTFLMVCFAGFNLKEKIFISFAWLPKATVQAAIGSVALDTARSHGEKQLEDYGMDVLTVAFLSILITAPIGSLLIGLLGPRLLQKVEHQNKDEEVQGETSVQV
notes: Sodium/proton exchanger NHA2 (SLC9B2), Homo sapiens, residues 59-537; construct lacks the first 58 amino acids; The methods call the tags N-terminal, but the protein is named NHA2∆N-GFP; TEV protease was added after the nanodisc reconstitution and before the final SEC; also called human NHA2∆N; hsNHA2∆N; not shown: GFP, N-terminal, cleaved; TwinStrep, N-terminal, cleaved; His8, N-terminal, cleaved
- stoichiometry N [2]: 2
